Experimental data published in publication PMC3169409.

Legend:
[1] = molecular target: nitrilotriacetate monooxygenase component B from Mycobacterium thermoresistibile (Mycobacterium thermoresistibile); experiment: crystal structure; apo structure at 1.6 Å, space group P212121; two independent dimers in the asymmetric unit; crystals from 0.2 M magnesium chloride, 0.1 M MES pH 6.0, 20% PEG 6000 at 289 K
[2] = molecular target: nitrilotriacetate monooxygenase component B from Mycobacterium thermoresistibile (Mycobacterium thermoresistibile); experiment: SEC; Superdex 75 26/60 in 20 mM HEPES pH 7.0, 300 mM NaCl, 5% glycerol, 1 mM TCEP

Question: How did the stoichiometry N [1] turn out when “nitrilotriacetate monooxygenase component B from Mycobacterium thermoresistibile (enzyme)” was run?
Answer: The stoichiometry N was 2.

Question: What about the stoichiometry N [2] of the same substance?
Answer: Its stoichiometry N is 2.
